Legend:
[1] = substrate: CC(=O)N[C@H]1[C@H](Oc2ccc3c(C)cc(=O)oc3c2)O[C@H](CO)[C@@H](O[C@@H]2O[C@H](CO)[C@@H](O)[C@H](O)[C@H]2NC(C)=O)[C@@H]1O; assay: fluorescence of released 4-methylumbelliferone; format: biochemical, Ostrinia furnacalis; settings: pH 6.0, 20 mM sodium phosphate, 303 K, 20 min, 30.0 °C
Excerpt: fluorescence of released 4-methylumbelliferone on OfChtII-C2

[2] = substrate: CC(=O)N[C@H]1[C@H](Oc2ccc3c(C)cc(=O)oc3c2)O[C@H](CO)[C@@H](O[C@@H]2O[C@H](CO)[C@@H](O)[C@H](O)[C@H]2NC(C)=O)[C@@H]1O; assay: fluorescence of released 4-methylumbelliferone; format: biochemical, Ostrinia furnacalis; settings: pH 6.0, 20 mM sodium phosphate, 303 K, 20 min, 30.0 °C; remark: listed apart in the source
Excerpt: fluorescence of released 4-methylumbelliferone on OfChi-h

B1: OfChtII-C2 (Ostrinia furnacalis) (protein)
chain: ERFKVVCYYTNWAWYRPDNGKYTPGDINPELCTHIIYAFAVLDKEELVIKSHDIWLDVENKFYEKVTALKSHGVKVLLGLGGWDDSAGDKYSRLVNNVSARRKFVVHAVDFLEQYGFDGLDLDWEYPKCWQVECEKGPDSDKQGFADLVKELRKAFNRRGMLLSAAVSASKRVIDYAYNVPALSMNLDWISLMTYDYHGQWDKKTGHVAPMYVHDKDTDNTFNVNFTVNYWINKGADRKKLVVGVPFYGQSFSVVEGAGTGLGAPTYAGGEAGDETRARGFLSFYEICERVKVKGWKVHRDPGGRIGPYATHDDQWVSFDDDFMARHKAEYVRAMELGGSMAWSLDLDDFTGKYCGCGKAPLLTTINHVLRGKEAPPPCIL
notes: single GH18 catalytic domain C2 (barrel 2059-2301 and 2377-2426); His-tag purified from Pichia pastoris GS115
- Km [1]: 11.93 ± 0.50 µM
- kcat [1]: 0.2037 ± 0.0025 s⁻¹
- kcat/Km [1]: 17000 M⁻¹ s⁻¹

B2: OfChi-h (Ostrinia furnacalis) (protein)
chain: APPGKPSLGWGERTFAIVEVNQAATAYNQLVTKRDSADVSVTWNVWSGDPADKARVLLNDKEFWSGTGGAAGSASFKVKKGGRYQMVVELCNADGCSQSDATEIIVADTDGSHLPPLDYNMGEKNKPFKQTSGKVVGAYFVEWGVYPRKFPVDRVPIPNLTHLLYGFIPICGGDGINDSLKEIEGSFQALQRSCSGREDFKVSIHDPWAALQKPQKGLSSWNEPYKGNFGQLMMLKQAKPDLKILPSIGGWTLADPFFFFTDETKRRRFVASVKDFLQTWKFFDGVDIDWEFPGGKGANPNLGSPKDGEIYVLLMKELREMLNELSAETGRKYELTSAISAGWDKIQVVDYSAAQKYMDHIFFMSYDFKGAWSNDTLGHQASLYAPDWNEKETYTTDFGVQFLLAQGVSPKKIVVGVAMYGRGWTGVHGYKDNNPFTGNATGPVKGTWQDGVVDYREIATEIAQGKWEYHYDKVAQAPYVFRPATGDLITYDDARSTIEKGKYVRANKLGGLFAWEIDADNGDILNAMNMGLGNSA
- Km [2]: 7.32 ± 0.35 µM
- kcat [2]: 3.1378 ± 0.0885 s⁻¹
- kcat/Km [2]: 429000 M⁻¹ s⁻¹

From publication PMC5827449, “Structural analysis of group II chitinase (ChtII) catalysis completes the puzzle of chitin hydrolysis in insects” (The Journal of Biological Chemistry, 2018)
